From article PMC12225019

Biological target: TRIM21 (tripartite motif-containing 21) (UniProt P19474)
Assay: co-IP, immunoblot
Details: reference: HMGA2 wild type; sites S105

“HMGA2 (high mobility group protein A2) (from UniProt P52926) HMGA2 S105A” was tested, and the “binding against the reference” value was “weaker”.
